This is an account of results in article PMC5526462 (Biochemistry, 2017).

Read-outs that look alike come from different tables or passages of the source.

The labels stand for the following.
T1: Methylobacterium extorquens PqqE (His6-MePqqE) (Methylobacterium extorquens, UniProt P71517 1-384)
T1 sequence (looked up): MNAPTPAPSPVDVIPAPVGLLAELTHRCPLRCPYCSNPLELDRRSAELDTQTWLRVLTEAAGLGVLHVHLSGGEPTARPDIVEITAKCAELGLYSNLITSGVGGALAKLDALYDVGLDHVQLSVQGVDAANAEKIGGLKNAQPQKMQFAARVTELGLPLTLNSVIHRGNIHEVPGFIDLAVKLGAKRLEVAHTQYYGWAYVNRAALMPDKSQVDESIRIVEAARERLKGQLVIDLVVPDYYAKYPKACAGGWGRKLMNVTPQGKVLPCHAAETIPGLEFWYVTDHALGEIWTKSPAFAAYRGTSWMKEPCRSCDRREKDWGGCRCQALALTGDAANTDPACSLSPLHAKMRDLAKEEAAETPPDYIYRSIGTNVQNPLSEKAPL

B1: MePqqD + MePqqA binary complex (complex, Methylobacterium extorquens)
chain: MEPTAFSGSDVPRLPRGVRLRFDEVRNKHVLLAPERTFDLDDNAVAVLKLVDGRNTVSQIAQILGQTYDADPAIIEADILPMLAGLAQKRVLER
peptide: KWAAPIVSEISVGMEVTSYESAEIDTFN
B2: Methylobacterium extorquens PqqD (MePqqD), truncation of the natural MePqqCD fusion (domain or fragment)
chain: B1 chain

The target of experiment [1] is PqqE (Methylorubrum extorquens) (UniProt B7KXC6). The following applies: cited from earlier work.
The target of experiment [2] is PqqD (Methylorubrum extorquens) (UniProt Q49148). The following applies: cited from earlier work.
Chain of PqqD (Methylorubrum extorquens) (Q49148 whole entry): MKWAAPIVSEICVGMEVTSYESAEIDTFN
The target of experiment [3] is PqqE (Methylorubrum extorquens) (UniProt B7KXC6). Conditions: cited from earlier work. The source holds these as a separate data set.
In experiment [4] the target is B2. The experiment in a line: NMR titration.
Experiment [5] has as its target T1, Methylobacterium extorquens PqqE …. The experiment in a line: NMR titration.

With PqqD (from UniProt Q49148), the dissociation constant (Kd) (as a rule, the free concentration of one partner at which half of the binding sites on the other are occupied at equilibrium, for simple one-to-one binding) in experiment [1] was 12 µM.

For the molecule PqqA (from UniProt Q49148), in experiment [2], the equilibrium dissociation constant (Kd) was 0.2 µM.

For PqqD-PqqA complex (from UniProt Q49148), the dissociation constant (Kd) in experiment [3] was 5 µM.

As to KWAAPIVSEISVGMEVTSYESAEIDTFN [MePqqA precursor peptide (without the N-terminal methionine, cysteine 11 changed to serine)], the binding result in experiment [4] is recorded as “binds”.

For the molecule B1, in experiment [5], the binding result was “binds”.

For the molecule B2, the binding result in experiment [5] is “binds”.
